Experimental data reported in patent US20260125649A1, “MEDIUM COMPOSITION AND METHOD FOR CULTURING MESENCHYMAL STEM CELLS” (ACADEMIA SINICA, priority 2018, published 2026).

What was measured:
[1] = tested on: MSCs; assay: Osteogenesis of MSCs by Alizarin Red S staining; type: cell-based, human
Procedure: Calcium precipitation was measured by Alizarin Red S (ARS) staining to probe the efficiency of osteogenesis. […] Quantification of osteogenesis, as measured by ARS staining, is shown for each group. MSCs were induced by osteogenetic medium and treated with EpEX at indicated doses. The gene expression of RUNX2 was examined by qPCR. […] ARS staining was performed to check the efficiency of osteogenesis. MSCs were pretreated with let-7 inhibitor and then treated with EpEX for 14 days during osteo-induction. ARS staining was performed to check the efficiency of osteogenesis. […] RUNX2 gene expression was measured by qPCR. MSCs were pretreated with let-7 inhibitor and induced by EpEX. RUNX2 gene expression was examined by qPCR. […] Upon EpEX stimulation, phosphorylation of EGFR-STAT3 signaling is induced and subsequently upregulates the level of Lin28 which inhibits let-7. When let-7 is inhibited, the transcription factor, HMGA2, is increased and binds to the promoters of Oct4 and Sox2. The EpEX-mediated increases of Oct4 and Sox2 can promote osteogenesis of MSCs during osteo-induction. […]
After 14 days of osteogenic differentiation, cells were fixed with ice-cold 70% ethanol at −20° C. for 1 h and then washed with PBS. […] For quantification, the cells were incubated with 1 mL of […] buffer for 1 h to extract ARS, and the O.D. at 550 nm was recorded.

[2] = tested on: EpICD binding to the Oct4 promoter; assay: ChIP of EpICD binding to the Oct4 promoter; type: cell-based, human; conditions: EpEX 3 μg/mL, ChIP-qPCR
Procedure: FIG. 12. EpEX increases the binding of EpICD to the promoter of Oct4 by inhibiting let7. (A) MSCs were transfected with let7 inhibitor or mimetics then treated with EpEX (3 μg/mL). Binding of EpICD to the Oct4 promoter was examined by chromatin immunoprecipitation (ChIP). EpICD was pulled down by a specific anti-EpICD antibody. The cross-linked DNA was isolated and then probed by qPCR with specific primers for the Oct4 promoter. (B) MSCs were transfected with let7 inhibitor or mimetics then treated with EpEX (3 μg/mL). Binding of EpICD-HMGA2 was examined by sequential ChIP. EpICD was pulled down by a specific anti-EpICD antibody, followed by pull-down with a HMGA2 antibody. To detect bound Oct4 promoter, the cross-linked DNA was isolated and then amplified by qPCR with specific primers.
We performed chromatin immunoprecipitation (ChIP) with the Pierce™ Magnetic ChIP Kit (Thermo Fisher Scientific), to according the manufacturer's instructions. In brief, the protein-DNA complexes were cross-linked with 1% formaldehyde and quenched by adding glycine to a final concentration of 200 mM. […]
The immunoprecipitated DNA was recovered by a PCR purification kit (Thermo Fisher Scientific), and the purified DNA was subjected to real time quantitative PCR for further analysis. Immunoprecipitation/input was calculated for each gene and each gene was further normalized to the level of mouse β-actin promoter. […]

binding of EpICD to the promoter of Oct4 [2]: increases
B1: EpEX: extracellular domain of human EpCAM, 265 amino acids in length (SEQ ID NO: 2) (protein, listed as Homo sapiens)
chain: MAPPQVLAFGLLLAAATATFAAAQEECVCENYKLAVNCFVNNNRQCQCTSVGAQNTVICSKLAAKCLVMKAEMNGSKLGRRAKPEGALQNNDGLYDPDCDESGLFKAKQCNGTSMCWCVNTAGVRRTDKDTEITCSERVRTYWIIIELKHKAREKPYDSKSLRTALQKEITTRYQLDPKFITSILYENNVITIDLVQNSSQKTQNDVDIADVAYYFEKDVKGESLFHSKKMDLTVNGEQLDLDPGQTLIYYVDEKAPEFSMQGLK
osteogenesis compared to controls ([1]; EpEX treatment during osteo-induction, 14 days, ARS staining): 4 fold | calcium precipitation (ARS staining) ([1]; EpEX, Day 14, vs non-treated controls): higher
